Test results published in patent publication US20240409619A1.

Columns and labels:
Assay in all cases: cell-based or functional assay
[1] = target: SARS-COV-2 spike of variant B.1.1.7 (Alpha) on pseudotyped virus (SARS-COV-2) (UniProt P0DTC2)
[2] = target: SARS-COV-2 spike of variant B.1.351 (Beta) on pseudotyped virus (SARS-COV-2) (UniProt P0DTC2)
[3] = target: SARS-COV-2 spike of variant B.1.526 (Iota) on pseudotyped virus (SARS-COV-2) (UniProt P0DTC2)
[4] = target: SARS-COV-2 spike of variant B.1.617.2 (Delta) on pseudotyped virus (SARS-COV-2) (UniProt P0DTC2)

Substance | fold reduction in ID50, pseudovirus neutralization [1] [fold] | fold reduction in ID50, pseudovirus neutralization [2] [fold] | fold reduction in ID50, pseudovirus neutralization [3] [fold] | fold reduction in ID50, pseudovirus neutralization [4] [fold] | fold change of pseudovirus neutralization against WA1/2020 [2] [fold]
DMAb 2130_FcTM (antibody) | < 3 | < 3 | < 3 | < 3 | –
DMAb REGN10987 (antibody) | – | – | – | – | < 3
